Residue numbers refer to the chain shown, from its start. Numbers in names are those of the source. Where “and” joins values, the source holds several entries; their conditions need not be identical. Identical values can stand only once.
T1: Pdx1 R288K (Bacillus subtilis), native (untagged) (Bacillus subtilis, UniProt P37527 1-294, R288K)
T1 construct: Pdx1, synthase subunit of PLP synthase, Bacillus subtilis; also called Pdx1 R288K mutein; source: site directed mutagenesis of Pdx1; expressed and purified as described by Raschle et al. (2005)
T1 sequence: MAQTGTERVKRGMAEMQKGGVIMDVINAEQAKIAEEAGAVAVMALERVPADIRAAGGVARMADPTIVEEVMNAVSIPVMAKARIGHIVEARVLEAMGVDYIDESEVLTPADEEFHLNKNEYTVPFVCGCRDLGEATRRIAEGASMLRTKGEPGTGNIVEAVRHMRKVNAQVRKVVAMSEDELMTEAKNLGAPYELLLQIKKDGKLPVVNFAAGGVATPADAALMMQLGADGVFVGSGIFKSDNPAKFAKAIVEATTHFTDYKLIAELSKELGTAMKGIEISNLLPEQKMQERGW

B1: Pdx2 (glutaminase, activated by Pdx1) (Bacillus subtilis subsp. subtilis str. 168) (protein)
chain: MLTIGVLGLQGAVREHIHAIEACGAAGLVVKRPEQLNEVDGLILPGGESTTMRRLIDTYQFMEPLREFAAQGKPMFGTCAGLIILAKEIAGSDNPHLGLLNVVVERNSFGRQVDSFEADLTIKGLDEPFTGVFIRAPHILEAGENVEVLSEHNGRIVAAKQGQFLGCSFHPELTEDHRVTQLFVEMVEEYKQKALV
notes: Pdx2 with untagged wild-type Pdx1; with Pyridoxal 5'-phosphate synthase subunit PdxS
B2: Pdx2 H170N (Bacillus subtilis), catalytically inert mutein (enzyme, UniProt P37528 1-196, looked up)
chain: B1 chain with H170N
notes: Pdx2, glutaminase subunit of PLP synthase, Bacillus subtilis; It was used together with glutamine (Michaelis complex of Pdx2 H170N and glutamine); also called Pdx2-His6 H170N; Pdx2 H170N mutein; source: construct Pdx2-His6 H170N of Strohmeier et al. (2006); expressed and purified as described by Raschle et al. (2005)
B3: Pdx1 wild type (Bacillus subtilis), native (untagged) (enzyme)
chain: T1 sequence with K288R
notes: Pdx1, synthase subunit of PLP synthase, Bacillus subtilis; construct pETBsPdx1 of Raschle et al. (2005); Native means untagged; Dodecamer by SEC-MALS; also called BsPdx1 wild type; PLP synthase synthase subunit; source: construct pETBsPdx1; expressed and purified as described by Raschle et al. (2005); copies: 12
B4: Pdx1 R288A (Bacillus subtilis), native (untagged) (enzyme)
chain: T1 sequence with K288A
notes: Pdx1, synthase subunit of PLP synthase, Bacillus subtilis; also called Pdx1 R288A mutein; source: site directed mutagenesis of Pdx1; expressed and purified as described by Raschle et al. (2005); copies: 12
B5: Pdx1 K187A (Bacillus subtilis), hexahistidine tagged (enzyme)
chain: T1 sequence with K187A, K288R
notes: Pdx1, synthase subunit of PLP synthase, Bacillus subtilis; parent construct pETBsPdx1-His6 of Strohmeier et al. (2006); It is in a dodecamer:hexamer equilibrium by SEC-MALS; also called Pdx1 K187A mutein; source: site directed mutagenesis of Pdx1; expressed and purified as described by Raschle et al. (2005); not shown: His6, C-terminal, kept
B6: PLP synthase (Pdx1 + Pdx2), native Pdx1 (Bacillus subtilis subsp. subtilis str. 168) (protein)
chain: AQTGTERVKRGMAEMQKGGVIMDVINAEQAKIAEEAGAVAVMALERVPADIRAAGGVARMADPTIVEEVMNAVSIPVMAKARIGHIVEARVLEAMGVDYIDESEVLTPADEEFHLNKNEYTVPFVCGCRDLGEATRRIAEGASMLRTKGEPGTGNIVEAVRHMRKVNAQVRKVVAMSEDELMTEAKNLGAPYELLLQIKKDGKLPVVNFAAGGVATPADAALMMQLGADGVFVGSGIFKSDNPAKFAKAIVEATTHFTDYKLIAELSKELGTAMKGIEISNLLPEQRMQERGW
notes: complex of untagged Pdx1 with Pdx2; 24-subunit complex; with Pyridoxal 5'-phosphate synthase subunit PdxT
B7: PLP synthase (Pdx1-His6 + Pdx2) (Bacillus subtilis subsp. subtilis str. 168) (protein)
chain: B6 chain
notes: complex of C-terminally hexahistidine-tagged Pdx1 with Pdx2-His6; with Pyridoxal 5'-phosphate synthase subunit PdxT
B8: PLP synthase (Pdx1-His6 + Pdx2) (Bacillus subtilis subsp. subtilis str. 168; R138A) (protein)
chain: B6 chain with R137A
notes: as for B7
B9: PLP synthase (Pdx1-His6 + Pdx2) (Bacillus subtilis subsp. subtilis str. 168; H115A/R138A) (protein)
chain: B6 chain with H114A, R137A
notes: as for B7
B10: PLP synthase (Pdx1-His6 + Pdx2) (Bacillus subtilis subsp. subtilis str. 168; E105D) (protein)
chain: B6 chain with E104D
notes: as for B7
B11: PLP synthase (Pdx1-His6 + Pdx2) (Bacillus subtilis subsp. subtilis str. 168; H115A) (protein)
chain: B6 chain with H114A
notes: as for B7
B12: PLP synthase (Pdx1-His6 + Pdx2) (Bacillus subtilis subsp. subtilis str. 168; K187A) (protein)
chain: B6 chain with K186A
notes: as for B7

Columns and labels:
Pdx1 = target: T2, Pdx1 (Bacillus subtilis, UniProt P37527); assay: ESI-MS (+[…] Da after NaBH4 reduction), tryptic peptide MALDI-TOF/TOF; type: biochemical; conditions: covalent Schiff base at K149 (P2 site); PLP made de novo from R5P, DL-G3P and ammonium sulfate
T2 construct: gene pdxS; full-length Pdx1 alone, native (untagged) from pETBsPdx1; dodecamer

[1] = substrate: NC(=O)CC[C@H](N)C(=O)O; assay: coupled glutaminase assay; type: biochemical, Bacillus subtilis; conditions: activated by wild-type Pdx1, 50 mM Tris-Cl pH 7.5, 37°C
Description: coupled glutaminase assay on Pdx2 (glutaminase, activated by Pdx1)

[2] = target: B4; assay: other fluorescence titration; intrinsic protein fluorescence of Pdx1 titrated with increasing concentrations of Pdx2 H170N in the presence of glutamine, without R5P; decrease in fluorescence intensity; done as described in ref. 21; conditions: both partners purified
[3] = target: B3; assay: as above; conditions: both partners purified
[4] = target: T1, Pdx1 R288K (Bacillus subtilis), native …; assay: as above; conditions: both partners purified
[5] = target: the molecule itself; assay: SEC-MALS; Superdex 200 10/300 GL, 100 µl at 1 mg/ml; 50 mM potassium phosphate pH 7.5, 50 mM potassium chloride, 0.01% sodium azide; miniDAWN TREOS; dodecamer to hexamers
purified protein = substrate: O=CC(O)COP(=O)(O)O; assay: purified protein; type: biochemical, Bacillus subtilis; conditions: R5P and glutamine as co-substrates, 50 mM Tris-Cl pH 7.5, 37°C

| Molecule | Km (purified protein; His-tagged proteins) [µM] | kcat (purified protein; His-tagged proteins) [s⁻¹] | kcat/Km (purified protein; His-tagged proteins) [M⁻¹ s⁻¹] | further results |
| --- | --- | --- | --- | --- |
| Cc1ncc(COP(=O)(O)O)c(C=O)c1O [pyridoxal 5′-phosphate] | – | – | – | ESI-MS (+231 Da after NaBH4 reduction), tryptic peptide MALDI-TOF/TOF (Pdx1): demonstrate that PLP is covalently bound to Pdx1 |
| B1 | – | – | – | Km [1]: 1160 ± 180 µM; kcat [1]: 0.0295 ± 0.00133 s⁻¹; kcat/Km [1]: 25.5 M⁻¹ s⁻¹ |
| B2 | – | – | – | binding result [2]: binds; binding result [3]: binds; binding result [4]: binds |
| B3 | – | – | – | stoichiometry N [5]: 12 |
| B4 | – | – | – | stoichiometry N [5]: 12 |
| B5 | – | – | – | stoichiometry N [5]: 12 and 6 |
| B6 | – | – | – | Km (purified protein): 186 ± 17 µM; kcat (purified protein): 0.00055 ± 3.3e-05 s⁻¹; kcat/Km (purified protein): 2.95 M⁻¹ s⁻¹ |
| B7 | 155 ± 23 | 0.0006 ± 8.3e-05 | 3.87 | – |
| B8 | 262 ± 26 | 0.0002 ± 1.7e-05 | 0.767 | – |
| B9 | 307 ± 75 | 0.0001 ± 0 | 0.333 | – |
| B10 | 249 ± 26 | 0.000233 ± 1.7e-05 | 0.933 | – |
| B11 | 229 ± 55 | 0.00013 ± 0 | 0.583 | – |
| B12 | 267 ± 18 | 0.0005 ± 1.7e-05 | 1.87 | – |

Source: paper PMC3024981, “It Takes Two to Tango: Defining an Essential Second Active Site in Pyridoxal 5′-Phosphate Synthase” (PLoS ONE, 2011)
